Reference: US20110130541A1

BY-kinase A1B2 from Staphylococcus aureus
Radioactivity incorporated in CapO (cpm); 50 pmol A1B2, 50 pmole CapO, no BYK001, incubation 0.5 min (CapO): 3950 cpm
Radioactivity incorporated in CapO (cpm); 50 pmol A1B2, 50 pmole CapO, no BYK001, incubation 1 min (CapO): 7040 cpm
Radioactivity incorporated in CapO (cpm); 50 pmol A1B2, 50 pmole CapO, no BYK001, incubation 2 min (CapO): 17400 cpm
Radioactivity incorporated in CapO (cpm); 50 pmol A1B2, 50 pmole CapO, no BYK001, incubation 5 min (CapO): 34700 cpm
Radioactivity incorporated in A1B2 (cpm); 50 pmole BYK001, 50 pmole A1B2, incubation 0.5 min (BYK001): 29200 cpm
Radioactivity incorporated in A1B2 (cpm); 50 pmole BYK001, 50 pmole A1B2, incubation 1 min (BYK001): 71700 cpm
Radioactivity incorporated in A1B2 (cpm); 50 pmole BYK001, 50 pmole A1B2, incubation 2 min (BYK001): 133000 cpm
Radioactivity incorporated in A1B2 (cpm); 50 pmole BYK001, 50 pmole A1B2, incubation 5 min (BYK001): 326000 cpm
Radioactivity incorporated in A1B2 (cpm); 500 pmole BYK001, 50 pmole A1B2, incubation 0.5 min (BYK001): 30700 cpm
Radioactivity incorporated in A1B2 (cpm); 500 pmole BYK001, 50 pmole A1B2, incubation 1 min (BYK001): 72500 cpm
Radioactivity incorporated in A1B2 (cpm); 500 pmole BYK001, 50 pmole A1B2, incubation 2 min (BYK001): 134000 cpm
Radioactivity incorporated in A1B2 (cpm); 500 pmole BYK001, 50 pmole A1B2, incubation 5 min (BYK001): 325000 cpm
Radioactivity incorporated in A1B2 (cpm); 5000 pmole BYK001, 50 pmole A1B2, incubation 0.5 min (BYK001): 29900 cpm
Radioactivity incorporated in A1B2 (cpm); 5000 pmole BYK001, 50 pmole A1B2, incubation 1 min (BYK001): 72500 cpm
Radioactivity incorporated in A1B2 (cpm); 5000 pmole BYK001, 50 pmole A1B2, incubation 2 min (BYK001): 141000 cpm
Radioactivity incorporated in A1B2 (cpm); 5000 pmole BYK001, 50 pmole A1B2, incubation 5 min (BYK001): 324000 cpm
Radioactivity incorporated in CapO (cpm); 50 pmole BYK001, 50 pmol A1B2, 50 pmole CapO, incubation 0.5 min (BYK001): 3560 cpm
Radioactivity incorporated in CapO (cpm); 50 pmole BYK001, 50 pmol A1B2, 50 pmole CapO, incubation 1 min (BYK001): 6390 cpm
Radioactivity incorporated in CapO (cpm); 50 pmole BYK001, 50 pmol A1B2, 50 pmole CapO, incubation 2 min (BYK001): 15500 cpm
Radioactivity incorporated in CapO (cpm); 50 pmole BYK001, 50 pmol A1B2, 50 pmole CapO, incubation 5 min (BYK001): 31900 cpm
Radioactivity incorporated in CapO (cpm); 500 pmole BYK001, 50 pmol A1B2, 50 pmole CapO, incubation 0.5 min (BYK001): 3500 cpm
Radioactivity incorporated in CapO (cpm); 500 pmole BYK001, 50 pmol A1B2, 50 pmole CapO, incubation 1 min (BYK001): 6300 cpm
Radioactivity incorporated in CapO (cpm); 500 pmole BYK001, 50 pmol A1B2, 50 pmole CapO, incubation 2 min (BYK001): 15500 cpm
Radioactivity incorporated in CapO (cpm); 500 pmole BYK001, 50 pmol A1B2, 50 pmole CapO, incubation 5 min (BYK001): 31300 cpm
Radioactivity incorporated in CapO (cpm); 5000 pmole BYK001, 50 pmol A1B2, 50 pmole CapO, incubation 0.5 min (BYK001): 3510 cpm
Radioactivity incorporated in CapO (cpm); 5000 pmole BYK001, 50 pmol A1B2, 50 pmole CapO, incubation 1 min (BYK001): 6320 cpm
Radioactivity incorporated in CapO (cpm); 5000 pmole BYK001, 50 pmol A1B2, 50 pmole CapO, incubation 2 min (BYK001): 15500 cpm
Radioactivity incorporated in CapO (cpm); 5000 pmole BYK001, 50 pmol A1B2, 50 pmole CapO, incubation 5 min (BYK001): 31000 cpm
